The experiment deals with SARS-CoV-2 Spike receptor binding domain (RBD) (SARS-CoV-2, ancestral (Wuhan-Hu-1) …, UniProt P0DTC2). The experiment can be described thus: SPR. As to conditions: both partners purified.

B1: nanobody Nb6 (class I synthetic nanobody) (VHH)
VHH: QVQLVESGGGLVQAGGSLRLSCAASGIIFGRNAMGWYRQAPGKERELVAGITRRGSITYYADSVKGRFTISRDNAKNTVYLQMNSLKPEDTAVYYCAADPASPAPGDYWGQGTQVTVSS
B1: the Kd (usually the constant that tells how readily two partners part at equilibrium) stood at 41 nM.

These data come from paper PMC7857409 (Science (New York, N.y.), 2020).
